{"source": "paper PMC3237458", "about": "“PEGylation Potentiates the Effectiveness of an Antagonistic Peptide That Targets the EphB4 Receptor with Nanomolar Affinity” (PLoS ONE, 2011)", "target": "EphB4 Fc (UniProt P54761)", "sequence (P54761 16-539)": "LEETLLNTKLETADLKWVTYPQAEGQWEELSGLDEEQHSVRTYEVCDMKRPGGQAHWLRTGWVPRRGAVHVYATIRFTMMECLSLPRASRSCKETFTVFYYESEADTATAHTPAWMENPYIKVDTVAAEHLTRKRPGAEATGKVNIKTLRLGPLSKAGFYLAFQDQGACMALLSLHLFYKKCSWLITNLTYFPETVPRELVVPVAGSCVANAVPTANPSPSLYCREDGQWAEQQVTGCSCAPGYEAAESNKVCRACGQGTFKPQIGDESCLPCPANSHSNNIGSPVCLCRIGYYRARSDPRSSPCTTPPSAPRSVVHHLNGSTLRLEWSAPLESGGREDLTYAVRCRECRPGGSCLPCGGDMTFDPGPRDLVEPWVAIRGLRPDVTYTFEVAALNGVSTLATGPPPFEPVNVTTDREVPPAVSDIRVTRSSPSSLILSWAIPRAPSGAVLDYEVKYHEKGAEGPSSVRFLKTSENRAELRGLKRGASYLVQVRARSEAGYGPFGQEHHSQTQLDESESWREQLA"}
{"substance": "PEGylated TNYL-RAW (PEG-TNYL-RAW) (peptide)", "values": [{"measurement": "inhibition of ephrin-B2 Fc-induced tyrosine phosphorylation of endogenous EphB4 in B16 melanoma cells (blocks EphB4 with ephrin-B2); 2 µM peptide reduce phosphorylation to undetectable levels", "result": 90, "unit": "nM"}]}
